Assay results taken from patent US12371726B2, “Process to produce mono-rhamnolipids” (Conopco, Inc., priority 2021, dated 2025).

B1: enzyme from A. niger: α-L-rhamnosidase from Aspergillus niger obtained from Megazyme LTD; SEQ ID. 2 (protein)
chain: MAPIALKILLFTSLIVPSISLSDQARNGHARTICEVKPGGSSEIDDVPAIVDALTTCGSGGRVIFSNNTYHINSVMNTTWLDDVEIDLQGTLLWSTNISYWLNHSLPVGYQNQSTAWILGGKDIVFEGHGYGTFNGSGQTWYRYVGSTSNYPRRPNQLTVSGAMGAVFKGLRFVQSQMWTMSIIHTSNSWFDSIYVNNLYDDGGSAQNTDGANTIYSKNITLTNWEVVNGDDSISTKANSTDITIANCTFTSGLGIAIGSIGQYNGAFETVERLKISNITYEKTTHAVYFKTWTGDQVGYPPNGGGGGLGYASDIVATNLKTNNLKGAPFTISQCTTFSGASGNCTNSKFQIRDLVFTDISGTTDSSDVASFQCSAVAPCEDITIENVSLRIAGNTTHAEEYLCGNVDGTVGFNCTGDVCVGSSATGGC
modifications: Aspergillus niger
B2: enzyme from A. terreus: recombinant α-L-rhamnosidase from Aspergillus terreus, prepared internally, secreted in P. pastoris; SEQ ID. 1 (protein, listed as Aspergillus terreus)
chain: MALSISQVAFEHHRTALGIGETQPRVSWRFDGNVSDWEQRAYEIEVKRAGHDADVFRSESSDSVLVPWPSSPLQSGEEATVRVRSFGSDGQHDTPWSDAVTVEPGLLTPDDWHDAVVIASDRPTEVDATHRPIQFRKEFSVDDSYVSARLYITALGLYEARINDQRVGDHVMAPGWQSYQYRHEYNTYDVTDLLKQGPNAIGVTVGEGWYSGRIGYDGGKRNIYGDTLGLLSLLVVTKSDGSKLYIPSDSSWKSSTGPIISSEIYDGEEYDSRLEQKGWSQVGFNSTGWLGTHELSFPKERLASPDGPPVRRVAEHKLANVFSSASGKTVLDFGQNLVGWLRIRVKGPKGQTIRFVHTEVMENGEVATRPLRQAKATDHFTLSGEGVQEWEPSFTYHGFRYVQVDGWPADTPLDENSVTAIVVHSDMERTGYFECSNPLISKLHENILWSMRGNFFSIPTDCPQRDERLGWTGDIHAFSRTANFIYDTAGFLRAWLKDARSEQLNHSYSLPYVIPNIHGNGETPTSIWGDAIVGVPWQLYESFGDKVMLEEQYGGAKDWVDKGIVRNDVGLWDRSTFQWADWLDPKAPADDPGDATTNKYLVSDAYLLHSTDMLANISTSLSKGEEASNYTEWHAKLTKEFQKAWITSNGTMANETQTGLALPLYFDLFPSAEQAQSAAKRLVNIIKQNDYKVGTGFAGTHLLGHTLSKYGESDAFYSMLRQTEVPSWLYQVVMNGTTTWERWDSMLPNGSINPGQMTSFNHYAVGSVGSWLHEVIGGLSPAEPGWRRINIEVVPGGDLQQASTKFLTPYGMASTKWWLDGQDQSCGGFDFHLVAEVPPNTRATVVLPGKGGEKVDVGSGVHEYHVRCVKL

Tests used:
[1] = tested on: α-L-rhamnosidase from A. terreus; assay: Influence of rhamnose excess on rhamnosidase activity (product inhibition); type: biochemical, Aspergillus terreus; conditions: pNPR substrate, rhamnose solutions 0.6-3 mM added 1:1:1, pH 6.5, 40° C., 30 minutes
Method: The analysis was performed only for α-l-rhamnosidase from A. terreus. The influence of rhamnose excess on enzyme activity was investigated using the same colorimetric method as described above (See FIG. 1). The pNPR substrate was first dissolved in DMSO, with concentration adjusted to 300 μM in 100 mM sodium phosphate buffer pH 6.5. Enzymes were diluted to concentration of 30 μg/mL in 100 mM sodium phosphate buffer pH 6.5. Following sequence of rhamnose concentrations were prepared in 100 mM sodium phosphate buffer pH 6.5: 0.6 mM, 1.2 mM, 1.8 mM, 2.4 mM, 3 mM. 240 μL of the total reaction mixture was prepared by adding the substrate solution, the enzyme solution and the rhamnose solution in 1:1:1 ratio. The activity assay was performed on 96-well Microtiter UV plate by Thermo Scientific (Waltham, MA USA). All reactions were done at pH 6.5 and in temperature 40° C. The changes in absorbance were monitored at 405 nm for 30 minutes in Microplate reader Varioskan® Flash. The relative activity of α-L-rhamnosidase from A. terreus was measured using pNPR substrate in the excess of rhamnose in the reaction mix. The analysis was performed in order to study product inhibition phenomenon.

[2] = Rhamnosidase activity assessment, colorimetric method using pNPR; type: biochemical; conditions: 40° C.
Method: α-l-Rhamnosidase activity of enzyme from A. terreus and enzyme from A. niger was determined by a colorimetric method using p-nitrophenyl-α-l-rhamnopyranoside (pNPR) (See the chemical formula equation shown in FIG. 1). The pNPR substrate was first dissolved in DMSO, with concentration adjusted to 200 μM in 100 mM sodium phosphate buffer pH 6.5. Enzymes were diluted to concentration of 20 μg/mL in 100 mM sodium phosphate buffer pH 6.5. The reaction was prepared by mixing the substrate solution with enzyme solution in 1:1 ratio. The activity assay was performed on 96-well Microtiter UV plate by Thermo Scientific (Waltham, MA USA). All reactions were done at pH 6.5 and in temperature 40° C. The changes in absorbance were monitored at 405 nm for 60 minutes in Microplate reader Varioskan® Flash. The relative activity of α-L-rhamnosidase from A. terreus and α-L-rhamnosidase from A. niger were measured against the p-NPR. The reaction was monitored in time at 40° C. and pH 6.5 (See FIG. 3). The enzymes caused release of the product—4-nitrophenol. […] The 70% conversion of R2 is plenty sufficient for test purposes, therefore the enzyme with faster kinetics was used for further analysis.

[3] = β-D-glucosidase activity assessment, colorimetric method using pNPG; type: biochemical
Method: β-D-glucosidase activity of enzyme from A. terreus was determined by a colorimetric method using p-nitrophenyl-β-glucopyranoside (pNPG). The pNPG substrate was first dissolved in DMSO, with concentration adjusted to 200 μM in 100 mM sodium phosphate buffer pH 6.5. To analyse the substrate preference, the pNPG was mixed with pNPR at 1:1 ratio, then dissolved in DMSO, and concentration of such mixture was adjusted to 200 μM in 100 mM sodium phosphate buffer pH 6.5. As a control, pNPR, prepared as above, at concentration of 200 μM was used. Enzyme was diluted to concentration of 20 μg/mL in 100 mM sodium phosphate buffer pH 6.5. The reactions were prepared by mixing the substrate solution with enzyme solution in 1:1 ratio. The activity assay was performed on 96-well Microtiter UV plate by Thermo Scientific (Waltham, MA USA). […] The changes in relative absorbance values were monitored at 405 nm for about 30 minutes in Microplate reader Varioskan® Flash.
pNPG was used as a substrate to monitor β-D-glucosidase activity of enzyme from A. terreus, the pNPR was used as a substrate showing α-l-rhamnopyranoside activity, and mixture of both substrates was used to determine substrate preference (see FIG. 5). […] The absorbance signal was not detected for the reaction with pNPG, and the reaction kinetics observed for pNPR substrate was not impacted by presence of pNPG in the reaction with mixed substrates.

Row | Molecule | effect of added rhamnose on substrate conversion rate [1] | time to reach about 70% of converted substrate ([2]; pNPR 100 μM, pH 6.5) | substrate converted more than A. terreus enzyme after 60 min ([2]; pNPR 100 μM, pH 6.5, 60 min) | substrate preference, pNPR versus pNPG and mixed substrates ([3]; pNPG mixed with pNPR 1:1, pH 6.5, 40° C.) | absorbance signal at 405 nm with pNPG (β-D-glucosidase activity) ([3]; pNPG, pH 6.5, 40° C., about 30 minutes) | converted substrate at plateau ([2]; pNPR 100 μM, pH 6.5) | kinetic behaviour compared between the two enzymes ([2]; pNPR, pH 6.5)
1 | C[C@H](O)[C@H](O)[C@@H](O)[C@@H](O)C=O [rhamnose] | substrate conversion rate decreased | – | – | – | – | – | –
2 | B1 | – | 30 min | 10% | – | – | – | –
3 | B2 | – | 10 min | – | recognized only pNPR as a substrate | not detected | 70% | acting faster
